{"source": "patent US20100015126A1", "about": "“Methods of Binding of Cross-Beta Structures By Chaperones” (priority 2006, published 2010)", "molecules": {"B1": {"name": "dOVA standard: heat-denatured chicken ovalbumin (protein)", "chain": "GSIGAASMEFCFDVFKELKVHHANENIFYCPIAIMSALAMVYLGAKDSTRTQINKVVRFDKLPGFGDSIEAQCGTSVNVHSSLRDILNQITKPNDVYSFSLASRLYAEERYPILPEYLQCVKELYRGGLEPINFQTAADQARELINSWVESQTNGIIRNVLQPSSVDSQTAMVLVNAIVFKGLWEKAFKDEDTQAMPFRVTEQESKPVQMMYQIGLFRVASMASEKMKILELPFASGTMSMLVLLPDEVSGLEQLESIINFEKLTEWTSSNVMEERKIKVYLPRMKMEEKYNLTSVLMAMGITDVFSSSANLSGISSAESLKISQAVHAAHAEINEAGREVVGSAEAGVDAASVSEEFRADHPFLFCIKHIATNAVLFFGRCVSP"}}, "molecular_target": "T1, recombinant human HSP90beta (Homo sapiens, UniProt P08238)", "T1 construct": "purchased Dr. S. Rüdiger, Cellular Protein Chemistry, Utrecht University", "T1 sequence (P08238 whole entry)": "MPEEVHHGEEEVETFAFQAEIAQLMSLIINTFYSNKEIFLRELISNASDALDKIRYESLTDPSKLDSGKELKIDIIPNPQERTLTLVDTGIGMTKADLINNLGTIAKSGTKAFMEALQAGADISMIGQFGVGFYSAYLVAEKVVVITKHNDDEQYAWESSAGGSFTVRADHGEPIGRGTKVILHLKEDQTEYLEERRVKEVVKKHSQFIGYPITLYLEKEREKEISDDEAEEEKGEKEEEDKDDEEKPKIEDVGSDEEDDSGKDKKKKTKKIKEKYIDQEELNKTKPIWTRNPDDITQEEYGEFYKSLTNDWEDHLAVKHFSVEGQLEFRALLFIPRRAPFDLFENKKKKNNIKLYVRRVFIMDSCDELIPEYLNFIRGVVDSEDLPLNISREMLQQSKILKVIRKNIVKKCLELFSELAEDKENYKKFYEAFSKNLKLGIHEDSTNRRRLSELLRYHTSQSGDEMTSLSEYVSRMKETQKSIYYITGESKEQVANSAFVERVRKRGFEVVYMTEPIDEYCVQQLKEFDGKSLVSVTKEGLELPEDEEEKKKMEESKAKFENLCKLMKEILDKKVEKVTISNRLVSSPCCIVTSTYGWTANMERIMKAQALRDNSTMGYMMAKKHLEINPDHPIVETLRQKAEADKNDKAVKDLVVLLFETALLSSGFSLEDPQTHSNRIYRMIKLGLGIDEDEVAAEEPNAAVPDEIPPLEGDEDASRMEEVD", "experiment": "ELISA: binding of HSP90 to immobilized (misfolded) protein ligands", "conditions": "5 mM DTT in binding buffer", "experimental": "Recombinant human HSP90beta was bought from Dr. S. Rüdiger (Cellular Protein Chemistry, Department of Chemistry, Faculty of Science, Utrecht University). HSP90beta eluted from an anion exchange column was supplied in 35 mM Bis-Tris/25mM Tris, 5 mM DTT, approximately 385 mM NaCl, approximately pH 9.0. The HSP90beta concentration was 5.0 μM (450 μg/ml with a MW of 90.000 Da; extinction coefficient of 53740 l/(mol*cm)). The supplied frozen stock is kept at −80° C. Before use, the stock is quickly thawed almost completely in a 37° C. water bath, and kept at wet ice. Before use, the HSP90beta solution is centrifuged for 5 minutes at 16,000*g at 4° C. During dilution of HSP90beta solution, 5 mM DTT should be incorporated in the dilution buffer, to keep free Cys residues. Thawed HSP90beta was aliquoted and snap frozen in liquid nitrogen before re-storage at −80° C.\nBinding of chaperones to immobilized (misfolded) protein ligands was determined using an enzyme linked immuno sorbent assay (ELISA) approach. […] After 5 washes with wash buffer followed by two washes with PBS, binding of antibodies was assessed. […] Plates were read at 450 nm. Triplicates were averaged and standard deviations calculated. […]"}
{"molecule": "B1", "values": [{"measurement": "Binding of concentration series of HSP90 to coated ligand", "result": "did also not bind"}]}
